Assay results published in the Human Domainome abundance scans (Beltran et al. 2025).
± gives the uncertainty stated by the source.

B1: Proto-oncogene vav, residues 782 to 842; numbered along this chain, P15498 (parent)
chain: KYFGTAKARYDFCARDRSELSLKEGDIIKILNKKGQQGWWRGEIYGRVGWFPANYVEEDYS

Variants of: B1
Test: abundance fitness (aPCA) (normalised: wild type 0, dead -1); higher = more abundant; growth selection in yeast, the domain comes from the species named
Conditions: Homo sapiens

Variant	abundance fitness
KYFGTAKARYDFCARDRSELSLKEGDIIKILNGKGQQGWWRGEIYGRVGWFPANYVEEDYS [K33G]	-0.734 ± 0.11
KYFGTAKARYDFCARDRSELSLKEGDIIKILNFKGQQGWWRGEIYGRVGWFPANYVEEDYS [K33F]	-0.593 ± 0.14
KYFGTAKARYDFCARDRSELSLKEGDIIKILNIKGQQGWWRGEIYGRVGWFPANYVEEDYS [K33I]	-0.44 ± 0.15
KYFGTAKARYDFCARDRSELSLKEGDIIKILNWKGQQGWWRGEIYGRVGWFPANYVEEDYS [K33W]	-0.693 ± 0.11
KYFGTAKARYDFCARDRSELSLKEGDIIKILNHKGQQGWWRGEIYGRVGWFPANYVEEDYS [K33H]	-0.68 ± 0.35
KYFGTAKARYDFCARDRSELSLKEGDIIKILNDKGQQGWWRGEIYGRVGWFPANYVEEDYS [K33D]	-0.743 ± 0.2
KYFGTAKARYDFCARDRSELSLKEGDIIKILNTKGQQGWWRGEIYGRVGWFPANYVEEDYS [K33T]	-0.377 ± 0.11
KYFGTAKARYDFCARDRSELSLKEGDIIKILNLKGQQGWWRGEIYGRVGWFPANYVEEDYS [K33L]	-0.929 ± 0.16
KYFGTAKARYDFCARDRSELSLKEGDIIKILNQKGQQGWWRGEIYGRVGWFPANYVEEDYS [K33Q]	-0.478 ± 0.19
KYFGTAKARYDFCARDRSELSLKEGDIIKILNYKGQQGWWRGEIYGRVGWFPANYVEEDYS [K33Y]	-0.475 ± 0.12
KYFGTAKARYDFCARDRSELSLKEGDIIKILNCKGQQGWWRGEIYGRVGWFPANYVEEDYS [K33C]	-0.732 ± 0.17
KYFGTAKARYDFCARDRSELSLKEGDIIKILNNKGQQGWWRGEIYGRVGWFPANYVEEDYS [K33N]	-0.681 ± 0.2
KYFGTAKARYDFCARDRSELSLKEGDIIKILNEKGQQGWWRGEIYGRVGWFPANYVEEDYS [K33E]	-0.46 ± 0.15
KYFGTAKARYDFCARDRSELSLKEGDIIKILNPKGQQGWWRGEIYGRVGWFPANYVEEDYS [K33P]	-0.41 ± 0.12
KYFGTAKARYDFCARDRSELSLKEGDIIKILNSKGQQGWWRGEIYGRVGWFPANYVEEDYS [K33S]	-0.576 ± 0.092
KYFGTAKARYDFCARDRSELSLKEGDIIKILNMKGQQGWWRGEIYGRVGWFPANYVEEDYS [K33M]	-0.804 ± 0.23
KYFGTAKARYDFCARDRSELSLKEGDIIKILNAKGQQGWWRGEIYGRVGWFPANYVEEDYS [K33A]	-0.711 ± 0.12
KYFGTAKARYDFCARDRSELSLKEGDIIKILNRKGQQGWWRGEIYGRVGWFPANYVEEDYS [K33R]	-0.089 ± 0.051
KYFGTAKARYDFCARDRSELSLKEGDIIKILNVKGQQGWWRGEIYGRVGWFPANYVEEDYS [K33V]	-0.41 ± 0.068
KYFGTAKARYDFCARDRSELSLKEGDIIKILNKDGQQGWWRGEIYGRVGWFPANYVEEDYS [K34D]	-0.054 ± 0.17
KYFGTAKARYDFCARDRSELSLKEGDIIKILNKPGQQGWWRGEIYGRVGWFPANYVEEDYS [K34P]	-0.165 ± 0.079
KYFGTAKARYDFCARDRSELSLKEGDIIKILNKMGQQGWWRGEIYGRVGWFPANYVEEDYS [K34M]	-0.22 ± 0.1

Variant	abundance fitness
KYFGTAKARYDFCARDRSELSLKEGDIIKILNKFGQQGWWRGEIYGRVGWFPANYVEEDYS [K34F]	-0.363 ± 0.31
KYFGTAKARYDFCARDRSELSLKEGDIIKILNKEGQQGWWRGEIYGRVGWFPANYVEEDYS [K34E]	0.068 ± 0.1
KYFGTAKARYDFCARDRSELSLKEGDIIKILNKSGQQGWWRGEIYGRVGWFPANYVEEDYS [K34S]	-0.05 ± 0.085
KYFGTAKARYDFCARDRSELSLKEGDIIKILNKCGQQGWWRGEIYGRVGWFPANYVEEDYS [K34C]	-0.117 ± 0.11
KYFGTAKARYDFCARDRSELSLKEGDIIKILNKRGQQGWWRGEIYGRVGWFPANYVEEDYS [K34R]	0.019 ± 0.043
KYFGTAKARYDFCARDRSELSLKEGDIIKILNKYGQQGWWRGEIYGRVGWFPANYVEEDYS [K34Y]	-0.216 ± 0.16
KYFGTAKARYDFCARDRSELSLKEGDIIKILNKHGQQGWWRGEIYGRVGWFPANYVEEDYS [K34H]	-0.03 ± 0.11
KYFGTAKARYDFCARDRSELSLKEGDIIKILNKVGQQGWWRGEIYGRVGWFPANYVEEDYS [K34V]	-0.072 ± 0.075
KYFGTAKARYDFCARDRSELSLKEGDIIKILNKIGQQGWWRGEIYGRVGWFPANYVEEDYS [K34I]	-0.424 ± 0.17
KYFGTAKARYDFCARDRSELSLKEGDIIKILNKAGQQGWWRGEIYGRVGWFPANYVEEDYS [K34A]	-0.013 ± 0.077
KYFGTAKARYDFCARDRSELSLKEGDIIKILNKQGQQGWWRGEIYGRVGWFPANYVEEDYS [K34Q]	0.031 ± 0.072
KYFGTAKARYDFCARDRSELSLKEGDIIKILNKNGQQGWWRGEIYGRVGWFPANYVEEDYS [K34N]	0.068 ± 0.15
KYFGTAKARYDFCARDRSELSLKEGDIIKILNKGGQQGWWRGEIYGRVGWFPANYVEEDYS [K34G]	-0.051 ± 0.07
KYFGTAKARYDFCARDRSELSLKEGDIIKILNKLGQQGWWRGEIYGRVGWFPANYVEEDYS [K34L]	-0.268 ± 0.065
KYFGTAKARYDFCARDRSELSLKEGDIIKILNKTGQQGWWRGEIYGRVGWFPANYVEEDYS [K34T]	-0.158 ± 0.094
KYFGTAKARYDFCARDRSELSLKEGDIIKILNKKGIQGWWRGEIYGRVGWFPANYVEEDYS [Q36I]	-0.084 ± 0.11
KYFGTAKARYDFCARDRSELSLKEGDIIKILNKKGNQGWWRGEIYGRVGWFPANYVEEDYS [Q36N]	-0.248 ± 0.22
KYFGTAKARYDFCARDRSELSLKEGDIIKILNKKGMQGWWRGEIYGRVGWFPANYVEEDYS [Q36M]	0.055 ± 0.085
KYFGTAKARYDFCARDRSELSLKEGDIIKILNKKGTQGWWRGEIYGRVGWFPANYVEEDYS [Q36T]	-0.076 ± 0.088
KYFGTAKARYDFCARDRSELSLKEGDIIKILNKKGDQGWWRGEIYGRVGWFPANYVEEDYS [Q36D]	-0.073 ± 0.18
KYFGTAKARYDFCARDRSELSLKEGDIIKILNKKGSQGWWRGEIYGRVGWFPANYVEEDYS [Q36S]	-0.195 ± 0.084
KYFGTAKARYDFCARDRSELSLKEGDIIKILNKKGYQGWWRGEIYGRVGWFPANYVEEDYS [Q36Y]	-0.219 ± 0.11

Variant	abundance fitness
KYFGTAKARYDFCARDRSELSLKEGDIIKILNKKGKQGWWRGEIYGRVGWFPANYVEEDYS [Q36K]	0.132 ± 0.1
KYFGTAKARYDFCARDRSELSLKEGDIIKILNKKGLQGWWRGEIYGRVGWFPANYVEEDYS [Q36L]	-0.045 ± 0.064
KYFGTAKARYDFCARDRSELSLKEGDIIKILNKKGHQGWWRGEIYGRVGWFPANYVEEDYS [Q36H]	0.016 ± 0.15
KYFGTAKARYDFCARDRSELSLKEGDIIKILNKKGEQGWWRGEIYGRVGWFPANYVEEDYS [Q36E]	-0.005 ± 0.077
KYFGTAKARYDFCARDRSELSLKEGDIIKILNKKGPQGWWRGEIYGRVGWFPANYVEEDYS [Q36P]	0.074 ± 0.092
KYFGTAKARYDFCARDRSELSLKEGDIIKILNKKGCQGWWRGEIYGRVGWFPANYVEEDYS [Q36C]	-0.258 ± 0.13
KYFGTAKARYDFCARDRSELSLKEGDIIKILNKKGGQGWWRGEIYGRVGWFPANYVEEDYS [Q36G]	-0.192 ± 0.066
KYFGTAKARYDFCARDRSELSLKEGDIIKILNKKGAQGWWRGEIYGRVGWFPANYVEEDYS [Q36A]	-0.07 ± 0.094
KYFGTAKARYDFCARDRSELSLKEGDIIKILNKKGWQGWWRGEIYGRVGWFPANYVEEDYS [Q36W]	-0.156 ± 0.094
KYFGTAKARYDFCARDRSELSLKEGDIIKILNKKGFQGWWRGEIYGRVGWFPANYVEEDYS [Q36F]	-0.166 ± 0.15
KYFGTAKARYDFCARDRSELSLKEGDIIKILNKKYQQGWWRGEIYGRVGWFPANYVEEDYS [G35Y]	-0.643 ± 0.14
KYFGTAKARYDFCARDRSELSLKEGDIIKILNKKQQQGWWRGEIYGRVGWFPANYVEEDYS [G35Q]	-0.304 ± 0.13
KYFGTAKARYDFCARDRSELSLKEGDIIKILNKKHQQGWWRGEIYGRVGWFPANYVEEDYS [G35H]	-0.428 ± 0.13
KYFGTAKARYDFCARDRSELSLKEGDIIKILNKKTQQGWWRGEIYGRVGWFPANYVEEDYS [G35T]	-0.16 ± 0.11
KYFGTAKARYDFCARDRSELSLKEGDIIKILNKKRQQGWWRGEIYGRVGWFPANYVEEDYS [G35R]	-0.287 ± 0.064
KYFGTAKARYDFCARDRSELSLKEGDIIKILNKKSQQGWWRGEIYGRVGWFPANYVEEDYS [G35S]	-0.104 ± 0.07
KYFGTAKARYDFCARDRSELSLKEGDIIKILNKKDQQGWWRGEIYGRVGWFPANYVEEDYS [G35D]	-0.155 ± 0.08
KYFGTAKARYDFCARDRSELSLKEGDIIKILNKKAQQGWWRGEIYGRVGWFPANYVEEDYS [G35A]	-0.346 ± 0.086
KYFGTAKARYDFCARDRSELSLKEGDIIKILNKKVQQGWWRGEIYGRVGWFPANYVEEDYS [G35V]	-0.412 ± 0.076
KYFGTAKARYDFCARDRSELSLKEGDIIKILNKKIQQGWWRGEIYGRVGWFPANYVEEDYS [G35I]	-0.334 ± 0.15
KYFGTAKARYDFCARDRSELSLKEGDIIKILNKKMQQGWWRGEIYGRVGWFPANYVEEDYS [G35M]	-0.324 ± 0.15
KYFGTAKARYDFCARDRSELSLKEGDIIKILNKKKQQGWWRGEIYGRVGWFPANYVEEDYS [G35K]	-0.204 ± 0.11

Variant	abundance fitness
KYFGTAKARYDFCARDRSELSLKEGDIIKILNKKNQQGWWRGEIYGRVGWFPANYVEEDYS [G35N]	-0.327 ± 0.24
KYFGTAKARYDFCARDRSELSLKEGDIIKILNKKPQQGWWRGEIYGRVGWFPANYVEEDYS [G35P]	-0.23 ± 0.12
KYFGTAKARYDFCARDRSELSLKEGDIIKILNKKWQQGWWRGEIYGRVGWFPANYVEEDYS [G35W]	-0.6 ± 0.12
KYFGTAKARYDFCARDRSELSLKEGDIIKILNKKEQQGWWRGEIYGRVGWFPANYVEEDYS [G35E]	-0.165 ± 0.072
KYFGTAKARYDFCARDRSELSLKEGDIIKILNKKCQQGWWRGEIYGRVGWFPANYVEEDYS [G35C]	-0.165 ± 0.093
KYFGTAKARYDFCARDRSELSLKEGDIIKILNKKLQQGWWRGEIYGRVGWFPANYVEEDYS [G35L]	-0.469 ± 0.075
KYFGTAKARYDFCARDRSELSLKEGDIIKILRKKGQQGWWRGEIYGRVGWFPANYVEEDYS [N32R]	-0.255 ± 0.063
KYFGTAKARYDFCARDRSELSLKEGDIIKILTKKGQQGWWRGEIYGRVGWFPANYVEEDYS [N32T]	-0.131 ± 0.1
KYFGTAKARYDFCARDRSELSLKEGDIIKILVKKGQQGWWRGEIYGRVGWFPANYVEEDYS [N32V]	-0.223 ± 0.078
KYFGTAKARYDFCARDRSELSLKEGDIIKILYKKGQQGWWRGEIYGRVGWFPANYVEEDYS [N32Y]	-0.168 ± 0.17
KYFGTAKARYDFCARDRSELSLKEGDIIKILSKKGQQGWWRGEIYGRVGWFPANYVEEDYS [N32S]	0.082 ± 0.062
KYFGTAKARYDFCARDRSELSLKEGDIIKILQKKGQQGWWRGEIYGRVGWFPANYVEEDYS [N32Q]	0.009 ± 0.12
KYFGTAKARYDFCARDRSELSLKEGDIIKILNKKGQCGWWRGEIYGRVGWFPANYVEEDYS [Q37C]	-0.02 ± 0.097
KYFGTAKARYDFCARDRSELSLKEGDIIKILNKKGQEGWWRGEIYGRVGWFPANYVEEDYS [Q37E]	0.033 ± 0.12
KYFGTAKARYDFCARDRSELSLKEGDIIKILNKKGQAGWWRGEIYGRVGWFPANYVEEDYS [Q37A]	-0.044 ± 0.075
KYFGTAKARYDFCARDRSELSLKEGDIIKILNKKGQDGWWRGEIYGRVGWFPANYVEEDYS [Q37D]	-0.008 ± 0.12
KYFGTAKARYDFCARDRSELSLKEGDIIKILNKKGQHGWWRGEIYGRVGWFPANYVEEDYS [Q37H]	0.037 ± 0.11
KYFGTAKARYDFCARDRSELSLKEGDIIKILNKKGQIGWWRGEIYGRVGWFPANYVEEDYS [Q37I]	-0.292 ± 0.14
KYFGTAKARYDFCARDRSELSLKEGDIIKILNKKGQKGWWRGEIYGRVGWFPANYVEEDYS [Q37K]	-0.022 ± 0.22
KYFGTAKARYDFCARDRSELSLKEGDIIKILNKKGQGGWWRGEIYGRVGWFPANYVEEDYS [Q37G]	0.029 ± 0.11
KYFGTAKARYDFCARDRSELSLKEGDIIKILNKKGQFGWWRGEIYGRVGWFPANYVEEDYS [Q37F]	-0.186 ± 0.094
